In patent US20190153119A1:

Legend:
TF on A431 cells (human) [1] = target: TF on A431 cells (human) (UniProt P13726); test: flow; conditions: Fc fusion
TF on A431 cells (human) [2] = target: TF on A431 cells (human) (UniProt P13726); test: flow; conditions: Fc fusion; remark: listed apart in the source

Sequence of UniProt P13726 (P13726 33-295): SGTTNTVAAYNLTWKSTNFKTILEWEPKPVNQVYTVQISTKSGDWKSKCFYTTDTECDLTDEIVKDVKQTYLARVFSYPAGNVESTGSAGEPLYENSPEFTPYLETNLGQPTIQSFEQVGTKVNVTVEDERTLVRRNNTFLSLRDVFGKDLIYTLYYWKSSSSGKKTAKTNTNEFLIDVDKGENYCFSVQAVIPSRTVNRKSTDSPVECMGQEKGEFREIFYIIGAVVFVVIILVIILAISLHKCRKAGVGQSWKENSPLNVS

Row | EC50 (TF on A431 cells (human) [1]) [nM] | EC50 (TF on A431 cells (human) [2]) [nM] | Substance
1 | 15 | – | 2-armed ICON1 [Lot 10.1.1]
2 | 2.5 | 3.59 | ICON1_BHK
3 | 12.9 | – | ICON1_CHO
